Laboratory results: patent US5863776A, “Method of preparing apoenzyme” (Research Development Foundation, priority 1996, dated 1999)
Blank lines part the entries; values can stand above or below the molecule they belong to.

Experiments:
[1] = molecular target: T1, MAO B (Homo sapiens, UniProt P27338); test: Quantitation of expressed MAO B protein by ELISA in transfected COS-7 cells; format: cell-based; parameters: MAO B Expressed: unit not given here
T1 construct: expressed in transfected cells; host or cells: COS-7 (African green monkey), riboflavin-containing (Rib+) or riboflavin-depleted (Rib-), transient electroporation
T1 sequence (P27338 1-520): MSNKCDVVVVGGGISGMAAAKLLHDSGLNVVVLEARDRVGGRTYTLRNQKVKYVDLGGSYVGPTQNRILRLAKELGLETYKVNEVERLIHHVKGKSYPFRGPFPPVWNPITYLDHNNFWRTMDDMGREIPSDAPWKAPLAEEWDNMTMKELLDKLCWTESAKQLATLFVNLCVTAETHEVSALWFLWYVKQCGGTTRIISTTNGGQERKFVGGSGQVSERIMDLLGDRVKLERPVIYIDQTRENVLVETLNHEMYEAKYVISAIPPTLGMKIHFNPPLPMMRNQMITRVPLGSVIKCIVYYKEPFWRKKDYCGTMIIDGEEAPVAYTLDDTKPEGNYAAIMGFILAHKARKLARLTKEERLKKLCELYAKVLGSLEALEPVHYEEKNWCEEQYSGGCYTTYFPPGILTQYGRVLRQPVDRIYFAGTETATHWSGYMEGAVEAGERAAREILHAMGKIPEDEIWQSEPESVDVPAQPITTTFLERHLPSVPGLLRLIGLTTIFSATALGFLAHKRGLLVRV
Experimental: (§1) Total protein concentrations of samples containing MAO B holoenzyme, apoenzyme, or variant MAO Bs were determined by a MicroBCA kit (Pierce). All samples were then adjusted to equal protein concentrations and assayed for MAO B protein by ELISA using a modification of the method of Yeomanson and Billett (25) as described previously (18).
MAO B cDNA was expressed sequentially at different time intervals in these cells during this riboflavin depletion process (FIG. 2). Each data point in FIG. 2 represents an individual expression assay. For each assay, a sample of COS-7 cells grown in riboflavin-free medium were transfected with MAO B cDNA via electroporation. Concurrently, Rib^+ COS-7 cells were transfected with MAO B cDNA to serve as a control. Following incubation for 48 hours, the cells were homogenized and assays were performed to determine protein concentration, MAO B concentration by ELISA using polyclonal antibodies, and MAO B activity using [^14 C] benzylamine.
An equal amount of MAO B cDNA (15 μg) was expressed in both types of […]

[2] = molecular target: T1, MAO B; test: MAO B enzymatic activity in COS-7 cells during riboflavin depletion; format: cell-based
Experimental: Mammalian COS-7 cells were grown in Dulbecco's Modified Eagle Medium (DMEM, Gibco) supplemented with 10% fetal bovine serum (FBS, Gibco) at 37° C. with 5% CO2. Since this medium (DMEM+10% FBS) contains riboflavin, COS-7 cells grown in this medium were defined as riboflavin-containing COS-7 cells (Rib^+ COS-7 cells). MAO B holoenzyme was obtained by expressing MAO B cDNA in Rib^+ COS-7 cells. Mammalian COS-7 cells were also grown in riboflavin-free medium (riboflavin-free DMEM+10% dialyzed FBS, Gibco) at 37° C. with 5% CO2, with fresh riboflavin-free medium changed every 48-72 hours. COS-7 cells grown in riboflavin-free medium for longer than 100 days were defined as riboflavin-depleted (Rib^-) COS-7 cells. Apo-MAO B was obtained by expressing MAO B cDNA in Rib^- COS-7 cells. COS-7 cells were grown in riboflavin-free medium for greater than 5 months without any detectable change in morphology.
Wild-type or mutant MAO B cDNAs were transiently transfected into COS-7 cells by electroporation (23) as previously described (18). […]
MAO B activity was assayed radiometrically by a modification of the method of Wurtman and Axelrod (26) as described previously (18). […] The reaction product was extracted with 500 μl of toluene, and an aliquot (200 μl) of the organic phase from each sample was counted in liquid scintillation fluid (Bio-Safe) in a Beckman LB 3801 scintillation counter. […]

[3] = molecular target: T1, MAO B; test: Subcellular fractionation of transfected Rib^+ and Rib^- COS-7 cells: distribution of MAO B and activity; format: cell-based; conditions: for Fraction activity: Rib^+ COS-7
Experimental: COS-7 subcellular fractionation was carried out with a modified method of Clark and Waterman (24). Transfected Rib^+ - or Rib^- COS-7 cells were harvested, washed twice with ice-cold PBS, and pelleted by microcentrifugation at 500×g for 5 minutes. The cells were then homogenized in a Dounce homogenizer. Greater than 95% of the cells were lysed, as determined by trypan blue staining. The homogenate was diluted with an equal volume of 10 mM Tris-HCl, 1 mM EDTA, pH 8.0, to obtain a 0.25M final sucrose concentration and layered over 0.5 volume of 0.5M sucrose pad (0.5M sucrose in 10 mM Tris-HCl, 1 mM EDTA, pH 8.0). The solution was centrifuged at 5,000 rpm for 3 minutes using a swinging bucket rotor (TLS.55, Beckman TL-100) to remove cell debris and nuclei (P1 fraction). The supernatant plus the interface of the 0.5M sucrose pad was again layered over another 0.5M sucrose pad, and centrifuged as above at 17,000 rpm for 20 minutes to isolate mitochondria (P2 fraction). The resulting supernatant was centrifuged at 70,000 rpm (TL100.3, Beckman TL-100) for 30 minutes to sediment microsomes (P3 fraction). The final supernatant was the cytosol (S). After subcellular fractionation, P1, P2 and P3 were resuspended in 20 mM Tris-HCl, 1 mM EDTA, 0.5 mM PMSF, 150 mM NaCl, pH 8.0. All samples were treated with Triton X-100 to extract MAO B, and then protein concentrations, MAO B concentrations and enzymatic activities were determined.
as §1
(§2) MAO B activity was assayed radiometrically by a modification of the method of Wurtman and Axelrod (26) as described previously (18). Briefly, the reaction mixture contained 200 μl of 50 mM sodium phosphate buffer (pH 7.4), 3.6 nmole of 55 mCi/mmol [^14 C] benzylamine hydrochloride (Amersham), 10 nmoles of unlabeled benzylamine and 10 μl of cell lysate. Samples were run in triplicate, and one out of each set was denatured with […] of 6N HCl prior to the addition of substrate to serve as an internal control. All reactions were incubated for 9 minutes at 37° C., and terminated by the addition of 25 μl of 6N HCl. The reaction product was extracted with 500 μl of toluene, and an aliquot (200 μl) of the organic phase from each sample was counted in liquid scintillation fluid (Bio-Safe) in a Beckman LB 3801 scintillation counter.
Transfected Rib^+ or Rib^- COS7 cells (1.2 × 10^7

[4] = molecular target: T1, MAO B; test: FAD coupling in intact cells: MAO B enzymatic activity after electroporation of MAO B cDNA with cofactor into Rib^- COS-7 cells ([^14 C] benzylamine substrate); format: cell-based; parameters: Percent of Holo-MAO B Activity: concentration or dose not given beside the values
Experimental: Wild-type or mutant MAO B cDNAs were transiently transfected into COS-7 cells by electroporation (23) as previously described (18). Briefly, Rib^+ - or Rib^- COS-7 cells were harvested during late log phase growth and resuspended to a concentration of 3.1×10^6 cells/ml in either riboflavin-containing or riboflavin-free medium, respectively. Wild-type or mutant MAO B cDNAs ([…]) were added to 0.8 ml of cell suspension. […] Electroporation was carried out in a Bio-Rad Gene Pulser with a setting of 250 V and 500 μF. Cells were resuspended in 15 ml of riboflavin-containing or riboflavin-free medium and incubated at 37° C. with 5% CO2. Transfected COS-7 cells were harvested at 48 hours and homogenized in a lysis solution containing 20 mM Tris-HCl, 1 mM EDTA, 0.5 mM PMSF, pH 8.0. The homogenate was diluted with an equal volume of the same buffer supplemented with 300 mM NaCl to obtain a 150 mM final NaCl concentration. Triton X-100 (Pierce) was added to the lysate to give a final concentration of 0.25%, and the samples were allowed to stir for 50 min. at 4° C. to extract MAO B from the outer mitochondrial membrane. After Triton extraction, the lysate was centrifuged at 1300×g for 5 min. at 4° C. to remove insoluble cell debris.
as §2
FMN or riboflavin were also capable of restoring approximately 75% of MAO B holoenzyme activity. However, only 40% of MAO B holoenzyme activity was obtained by the addition of 8α-hydroxyriboflavin.
Various cofactors were added with MAO B cDNA into Rib^- COS7 cells

[5] = molecular target: T1, MAO B; test: FAD coupling in vitro (flavinylation assay in cell lysate, 30° C.); format: biochemical; conditions: up to 3 hours at 30° C.
Experimental: (- - - x - - - ). […] The enzymatic activity of each sample was determined at 1 hour time intervals using [^14 C] benzylamine as substrate.
Apo-MAO B was obtained by expressing MAO B cDNA in Rib^- COS-7 cells. The cells were then harvested and homogenized as described above. One half of the lysate was stirred in the presence of 0.25% Triton X-100 at 4° C. for 50 min. to extract apo-MAO B from the outer mitochondrial membrane. The second half of the lysate was not extracted with Triton X-100 to permit MAO B to remain in the membrane. […] Assays were also carried out in the presence of an energy mixture (10 mM ATP, 32 mM PEP and 2.4 μg pyruvate kinase) and 25% glycerol in the reaction vials. Each sample was run in triplicate. After 1, 2 or 3 hours incubation at 30° C., each sample was assayed for MAO B activity as described below.
as §2

[6] = COS-7 cells grown in riboflavin-free medium for 76 days
[7] = cofactor added with MAO B cDNA into Rib^- COS-7 cells, 48 hours, mean ± SE, three experiments
[8] = Mitochondria (P2), listed as holo-MAO B

Molecule: monoamine oxidase B [MAO B]
Expression [1, 6]: 0.90 μg MAO B/mg prot.
[MAO B] [1, 6]: 3.70 µg/mL
Expression ([1]; Rib^+ COS-7): 0.86 μg MAO B/mg prot.
[MAO B] ([1]; Rib^+ COS-7): 3.50 µg/mL
MAO B expression level ([1]; during riboflavin depletion, regardless of time in riboflavin-free medium): 0.95±0.04 μg/mg protein
MAO B activity, % of MAO B holoenzyme activity in Rib^+ COS-7 cells ([2]; 100 days in riboflavin-free medium): less than 5%
MAO B activity ([2]; after 116 days in riboflavin-free medium): nearly undetectable

MAO B Expressed [1, 7]: 1.05 ± 0.25
Fraction activity, percentage of total ([3]; Cell debris (P1)): 4.5%
MAO B amount ([3]; Cell debris (P1)): 58 ng
MAO B, percentage of total amount ([3]; Cell debris (P1)): 6.1%
Fraction activity, percentage of total ([3]; Cytosol (S)): 3.7%
MAO B amount ([3]; Cytosol (S)): 45 ng
MAO B, percentage of total amount ([3]; Cytosol (S)): 4.7%
Fraction activity, percentage of total ([3]; Microsome (P3)): 8.6%
MAO B amount ([3]; Microsome (P3)): 96 ng
MAO B, percentage of total amount ([3]; Microsome (P3)): 10%
Fraction activity, percentage of total ([3]; Mitochondria (P2)): 83.3%
MAO B amount ([3]; Mitochondria (P2)): 760 ng
MAO B, percentage of total amount ([3]; Mitochondria (P2)): 79.3%
Fraction activity, percentage of total [3, 8]: Approximately 80%
MAO B, percentage of total amount [3, 8]: Approximately 80%
Fraction activity ([3]; Cell debris (P1)): 0.6 10^-4 mmol/minute
Fraction activity ([3]; Cytosol (S)): 0.48 10^-4 mmol/minute
Fraction activity ([3]; Microsome (P3)): 1.11 10^-4 mmol/minute
Fraction activity ([3]; Mitochondria (P2)): 10.8 10^-4 mmol/minute
Percent of Holo-MAO B Activity ([4]; relative to holo-MAO B expressed in Rib^+ COS-7 cells): 100%
stability of enzymatic activity in cell lysate [5]: remained fully active
B1: Holo-MAO B: obtained by expressing MAO B cDNA in Rib^+ COS-7 cells, which served as a positive control (protein, UniProt P27338 2-520, looked up)
Amine oxidase …: SNKCDVVVVGGGISGMAAAKLLHDSGLNVVVLEARDRVGGRTYTLRNQKVKYVDLGGSYVGPTQNRILRLAKELGLETYKVNEVERLIHHVKGKSYPFRGPFPPVWNPITYLDHNNFWRTMDDMGREIPSDAPWKAPLAEEWDNMTMKELLDKLCWTESAKQLATLFVNLCVTAETHEVSALWFLWYVKQCGGTTRIISTTNGGQERKFVGGSGQVSERIMDLLGDRVKLERPVIYIDQTRENVLVETLNHEMYEAKYVISAIPPTLGMKIHFNPPLPMMRNQMITRVPLGSVIKCIVYYKEPFWRKKDYCGTMIIDGEEAPVAYTLDDTKPEGNYAAIMGFILAHKARKLARLTKEERLKKLCELYAKVLGSLEALEPVHYEEKNWCEEQYSGGCYTTYFPPGILTQYGRVLRQPVDRIYFAGTETATHWSGYMEGAVEAGERAAREILHAMGKIPEDEIWQSEPESVDVPAQPITTTFLERHLPSVPGLLRLIGLTTIFSATALGFLAHKRGLLVRV
modifications: FAD holoenzyme
notes: obtained by expressing MAO B cDNA in Rib^+ COS-7 cells, which served as a positive control
Enzymatic Activity [4, 7]: 1.13 ± 0.14 μmol benzylamine/minute/mg MAO
